According to US20110008258A1, “METHODS RELATING TO BREATHING DISORDERS” (SAMSARA MEDICIN AB, priority 2007, published 2011):

Experiments:
[1] = target: T1, mPGES-1 enzyme (Homo sapiens, UniProt O14684); details: reported in refs 75-77; read-out: IC50, inhibition of mPGES-1; cited from earlier work
T1 sequence (O14684 1-152): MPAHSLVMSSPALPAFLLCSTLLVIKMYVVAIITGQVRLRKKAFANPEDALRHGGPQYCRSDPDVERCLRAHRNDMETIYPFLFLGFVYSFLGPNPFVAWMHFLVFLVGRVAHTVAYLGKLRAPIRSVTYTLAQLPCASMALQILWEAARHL

[2] = tested on: mPGES-1^+/+ mice; experiment: Whole-body flow plethysmography after i.p. IL-1β, mPGES-1+/+ mice; format: in vivo
Protocol: (§1) A Plexiglas chamber (35 ml) was connected to a highly sensitive direct airflow sensor (0-200 ml/min; TRN3100, Kent Scientific Corporation, Litchfield, Conn., USA). The flow signal was amplified by a four-channel amplifier (P/N 770 S/N 5; SENSElab, Somedic Sales, Hörby, Sweden), converted to digital signal, and recorded at 100 Hz by an online computer using DasyLab software (Datalog GmbH & Co. KG, Mönchengladbach, Germany). Respiratory frequency (fR, breaths/min), tidal volume (VT, μl/breath), and minute ventilation (VE, μl/min) were calculated. […] As described previously, the chamber was calibrated by repeatedly injecting standardized volumes of air (5-200 μl) with preset precision syringes (Hamilton Bonaduz AG, Switzerland) (6).
(§2) Each mouse received an intraperitoneal injection (0.01 ml/g) of IL-1β (10 μg/kg) or vehicle. At 70 min, the mouse was placed unrestrained into the plethysmograph chamber. Respiration was assessed during 4 min of normoxia (21% O2) followed by 1 min of hyperoxia (100% O2). After a 5 min recovery period in normoxia, the respiratory response to anoxia (100% N2) was examined. Finally, 100% O2 was administered for 8 min, and the ability to autoresuscitate was evaluated. Skin temperature was recorded at baseline, at 70 min, and after removal from the chamber. Rectal temperature was not measured as rectal probe placement may alter respiratory behavior. The anogenital distance was measured to approximate gender.
(§3) Periods of calm respiration without movement artefact were selected for analysis. Mean fR, VT, and VE values during normoxia and hyperoxia as well as the anoxic response (i.e., hyperpnea, primary apnea, gasping, secondary apnea, and autoresuscitation) were analyzed as described previously (6, the disclosure of which is expressly incorporated herein by reference). Survival was recorded for all animals. Apnea was defined as cessation of breathing for three respiratory cycles. Regularity of breathing was quantified using the coefficient of variation (C.V.) (i.e., SD divided by mean of breath-by-breath interval during 60 periods).
(§4) As there is a variable response to anoxia based upon age (53), we attempted to perform all recordings at age P9; however, in an effort to minimize confounding age-related effects, weight was used as a correlate of age and only animals with weights within 1 SD of the population mean weight were included in the anoxia and survival analyses (6).

[3] = tested on: mPGES-1^−/− mice; experiment: Whole-body flow plethysmography after i.p. IL-1β, mPGES-1−/− mice; format: in vivo
Protocol: as §1, §2, §3, §4

[4] = tested on: EP3R^−/− mice; experiment: Whole-body flow plethysmography after i.p. IL-1β, EP3R−/− mice; format: in vivo
Protocol: as §1, §2
as §3, with “periods). […]” for “periods).”

[5] = tested on: mPGES-1; experiment: mPGES-1 activity in brain membrane fraction after IL-1β; format: in vivo, mice
Protocol: Newborn mouse brains (n=33) were homogenized in 0.1M KPi (potassium inorganic phosphate) buffer containing 0.25M sucrose, 1× complete protease inhibitor (Roche Diagnostics) and 1 mM reduced glutathione followed by sonication. Membrane fraction was isolated by subcellular fractionation. mPGES-1 activity was measured in the membrane fraction as described previously (52, the disclosure of which is expressly incorporated herein by reference).

[6] = 9 d-old mPGES-1+/+ mice, IL-1β i.p., hyperoxia (100% O2)
[7] = 9 d-old mPGES-1+/+ mice, IL-1β i.p., normoxia
[8] = mPGES-1+/+ mice, anoxia at 80 min after IL-1β
[9] = 9 d-old mPGES-1−/− mice, IL-1β i.p., hyperoxia (100% O2)
[10] = 9 d-old mPGES-1−/− mice, IL-1β i.p., normoxia
[11] = mPGES-1−/− mice, anoxia at 80 min after IL-1β
[12] = EP3R wildtype mice, 90 min after IL-1β

CCCCC/C=C\C\C=C/C=C/C=C/[C@@H](SC[C@H](NC(=O)CC[C@H](N)C(=O)O)C(=O)NCC(=O)O)[C@@H](O)CCCC(=O)O [leukotriene C4]
IC50 [1]: 5 µM

CSc1ccc(/C=C2/C(C)=C(CC(=O)O)c3cc(F)ccc32)cc1 [sulindac sulfide]
IC50 [1]: 80 µM

B1: IL-1β: Recombinant mouse interleukin-1β (Nordic Biosite AB), pro-inflammatory cytokine given i.p. to neonatal mice (protein, UniProt P10749 118-269, looked up)
Interleukin-1 beta: VPIRQLHYRLRDEQQKSLVLSDPYELKALHLNGQNINQQVIFSMSFVQGEPSNDKIPVALGLKGKNLYLSCVMKDGTPTLQLESVDPKQYPKKKMEKRFVFNKIEVKSKVEFESAEFPNWYISTSQAEHKPVFLGNNSGQDIIDFTMESVSS
fR, normoxia ([2]; 9 d-old mPGES-1+/+ mice, IL-1β 10 μg/kg i.p., normoxia, mean±SEM): 224 ± 5 breaths/min
VE, hyperoxia [2, 6]: 628 ± 43 µL/min/g
VT, hyperoxia [2, 6]: 3.9 ± 0.2 μl/br/g
fR, hyperoxia [2, 6]: 155 ± 7 breaths/min
VE, normoxia [2, 7]: 730 ± 38 µL/min/g
VT, normoxia [2, 7]: 3.2 ± 0.2 μl/br/g
anoxic survival ([2]; mPGES-1+/+ mice, 5 min anoxia at 80 min after IL-1β i.p.): significantly reduced anoxic survival
Hyperpnea fR ([2]; mPGES-1+/+ mice, anoxia (100% N2) at 80 min after IL-1β): 390 ± 11 breaths/min
Gasping Response Duration [2, 8]: 82 ± 7
Gasping Response Gasp # [2, 8]: 30 ± 2
Gasping Response Gasp fR [2, 8]: 23 ± 1
Hyperpnea Duration [2, 8]: 61 ± 2
VE, hyperoxia [3, 9]: 795 ± 67 µL/min/g
VT, hyperoxia [3, 9]: 3.9 ± 0.3 μl/br/g
fR, hyperoxia [3, 9]: 206 ± 11 breaths/min
VE, normoxia [3, 10]: 660 ± 41 µL/min/g
VT, normoxia [3, 10]: 2.7 ± 0.1 μl/br/g
fR, normoxia [3, 10]: 245 ± 7 breaths/min
Hyperpnea fR ([3]; mPGES-1−/− mice, anoxia (100% N2) at 80 min after IL-1β): 338 ± 24 breaths/min
Gasping Response Duration [3, 11]: 146 ± 23
Gasping Response Gasp # [3, 11]: 36 ± 3
Gasping Response Gasp fR [3, 11]: 18 ± 2
Hyperpnea Duration [3, 11]: 57 ± 2
anoxic survival ([3]; mice lacking mPGES-1, 5 min anoxia at 80 min after IL-1β i.p.): did not decrease survival
hypoxic ventilatory response ([4]; EP3R−/− mice, IL-1β i.p.): unable to affect the hypoxic ventilatory response
ventilation during normoxia or hyperoxia ([4]; EP3R−/− mice, IL-1β i.p.): did not alter ventilation
anoxic survival ([4]; mice lacking EP3R, 5 min anoxia at 80 min after IL-1β i.p.): did not decrease survival
mPGES-1 activity (PGE2), brainstem [5, 12]: 1111±49 pmol/min/mg protein
mPGES-1 activity (PGE2), cortex [5, 12]: 710±44 pmol/min/mg protein
brainstem mPGES-1 activity compared to control mice ([5]; IL-1β-treated mice exposed to anoxia (100% N2, 5 min)): four-times higher activity
cortex mPGES-1 activity ([5]; between 90 and 180 min after IL-1β): remained unchanged
mPGES-1 activity ([5]; mice with genetic deletion of mPGES-1 gene, IL-1β and anoxia): negligible activity
brainstem mPGES-1 activity compared to saline-treated mice ([5]; wildtype mice, 90 min after IL-1β): approximately two-fold higher activity
increase in brainstem mPGES-1 activity ([5]; wildtype mice, 180 min after IL-1β): four-fold increase
